# Experimental data taken from publication PMC3767169.
# Target: complement C1q (human) (UniProt P02745)
# Experiment: fluorescence polarisation
# Chain of UniProt P02745 (P02745 23-245, chain 1 of 3): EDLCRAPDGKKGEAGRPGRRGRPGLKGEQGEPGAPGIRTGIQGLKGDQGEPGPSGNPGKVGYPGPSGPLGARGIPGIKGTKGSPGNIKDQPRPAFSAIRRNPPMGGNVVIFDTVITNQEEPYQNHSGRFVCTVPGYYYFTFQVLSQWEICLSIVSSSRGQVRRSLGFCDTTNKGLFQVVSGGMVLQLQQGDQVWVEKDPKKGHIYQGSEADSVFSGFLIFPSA
# Chain of UniProt P02745 (P02746 28-253, chain 2 of 3, further chain): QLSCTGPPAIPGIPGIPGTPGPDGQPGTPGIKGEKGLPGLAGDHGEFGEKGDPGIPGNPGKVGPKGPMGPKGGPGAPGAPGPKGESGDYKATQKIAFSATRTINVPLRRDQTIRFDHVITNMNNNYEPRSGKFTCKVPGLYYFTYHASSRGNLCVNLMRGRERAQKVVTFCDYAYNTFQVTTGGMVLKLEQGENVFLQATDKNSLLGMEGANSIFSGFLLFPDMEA
# Chain of UniProt P02745 (P02747 29-245, chain 3 of 3, further chain): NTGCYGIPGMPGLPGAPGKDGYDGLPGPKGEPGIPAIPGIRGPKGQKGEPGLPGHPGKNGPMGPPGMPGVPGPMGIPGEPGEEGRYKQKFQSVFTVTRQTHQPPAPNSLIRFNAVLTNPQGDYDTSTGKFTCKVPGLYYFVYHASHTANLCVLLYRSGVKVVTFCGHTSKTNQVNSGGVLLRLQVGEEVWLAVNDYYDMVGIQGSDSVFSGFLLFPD
substance,measurement,value
modified C-reactive protein (mCRP) (from UniProt P02741 19-224) (natural protein),change in anisotropy (Δr),0.081
